Molecular target: NA of A/Bethesda/NIH107-D31/2009 (pH1N1, H275Y) (influenza A virus …)
Assay: cell-based or functional assay

B1: mAb CD6 (whole IgG) (antibody, V domains shown)
VH: QVKLQESGGGLVQPKGSLKLSCAASGFTFNTYAMNWVRQAPGKGLEWVARIRSKSNNYATFYADSVKDRFTISRDDSQSMLYLQMHNLKTDDTAMYYCVRPSIYYYASGYLDVWGAGTTVTVSS
VL: QIVLSQSPAILSASPGEKVTMTCRTSSSVSYMHWYQQKPGSSPKPWIYATSNLASGVPFRFSGSGSGTSYSLTISRVEAEDAATYYCQQWNSNPPTFGGGTKLEIKR
IC50, inhibition of NA activity in ELLA (fetuin substrate): 29 ng/mL

From US20170306002A1 (UNITED STATES OF AMERICA AS REPESENTED BY THE SECRETARY …, published 2017)
